Patent publication US20230364254A1, “METHODS FOR TREATING CANCERS WITH ANTIBODY DRUG CONJUGATES (ADC) THAT BIND TO 191P4D12 PROTEINS” (priority 2020, published 2023)

Tested on: patients with locally advanced or metastatic urothelial cancer
Assay: Same phase 2 study: safety (adverse events, NCI CTCAE v4.03)
Assay type: in vivo, human
Conditions: Cohort 2 (N = 89)
Text: Safety assessments will be based on the information collected through the safety surveillance process and will include the data from recorded adverse events (AEs) including SAEs, recording of concomitant medication, physical examination findings, cardiac monitoring, and laboratory tests.
The assessment of safety during the course of this study will consist of the surveillance and recording of AEs including SAEs, recording of concomitant medication, and measurements of protocol-specified physical examination findings, cardiac monitoring, and laboratory tests.
AE severity should be graded using the National Cancer Institute's Common Terminology Criteria for Adverse Events (NCI CTCAE), Version 4.03. These criteria are provided in the study manual.
An overview of AEs will provide a tabulation of the incidence of all AEs, treatment-emergent AEs, treatment-related AEs, Grade 3 and higher AEs. SAEs, treatment-related SAEs, deaths, and AEs leading to study treatment discontinuation. Adverse events will be defined as treatment emergent if they are newly occurring or worsened following study treatment.
AEs will be classified by system organ class and preferred tem using the Medical Dictionary for Regulatory Activities (MedDRA) and graded using NCI CTCAE, Version 4.03.
The incidence of AEs will be summarized by system organ class, preferred term, severity and relationship to study drug. In the event of multiple occurrences of the same AE in one patient, the AE will be counted once as the occurrence for the maximum grade. AEs leading to premature discontinuation of study drug will be summarized and listed in the same manner.

For “enfortumab vedotin: Nectin-4 directed ADC: fully human anti-nectin-4 IgG1 kappa antibody (AGS-22C3) conjugated to MMAE via protease-cleavable maleimidocaproyl valine-citrulline linker”, the “AE of special interest, All Grade: Ocular Events, Blurred Vision” value was 9 (10.1) N (%), the “AE of special interest, All Grade: Ocular Events, Corneal Disorders” value was 5 (5.6) N (%) and the “AE of special interest, All Grade: Ocular Events, Dry Eye Disorders” value was 27 (30.3) N (%). The “AE of special interest, All Grade: Peripheral Neuropathy” value was 51 (58.4) N (%), the “AE of special interest, All Grade: Rash” value was 59 (66.3) N (%) and the “AE of special interest, ≥Gr 3: Hyperglycemia” value was 8 (9) N (%). For the same substance, the “AE of special interest, ≥Gr 3: IRR” value was 1 (1.1) N (%), the “AE of special interest, ≥Gr 3: Peripheral Neuropathy” value was 7 (7.9) N (%) and the “AE of special interest, ≥Gr 3: Rash” value was 15 (16.9) N (%). For the same substance, the “Any TEAEs” value was 89 (100.0) n (%), the “Any TEAEs leading to death” value was 8 (9.0) n (%) and the “Any TEAEs leading to treatment discontinuation” value was 18 (20.2) n (%). The “Any grade 3-5 TEAEs” value was 62 (69.7) n (%), the “Any serious TEAEs” value was 35 (39.3) n (%) and the “SAEs (All): Acute kidney injury” value was 9 (10.1) n (%). For the same substance, the “SAEs (All): Diarrhoea” value was 3 (3.4) n (%), the “SAEs (All): Febrile neutropenia” value was 1 (1.1) n (%) and the “SAEs (All): Nausea” value was 2 (2.2) n (%). For the same substance, the “SAEs (All): Overall” value was 35 (39.3) n (%), the “SAEs (All): Pneumonia” value was 3 (3.4) n (%) and the “SAEs (All): Sepsis” value was 4 (4.5) n (%). For the same substance, the “SAEs (All): Urinary tract infection” value was 3 (3.4) n (%), the “SAEs (Related): Acute kidney injury” value was 3 (3.4) n (%) and the “SAEs (Related): Diarrhoea” value was 2 (2.2) n (%). The “SAEs (Related): Febrile neutropenia” value was 1 (1.1) n (%), the “SAEs (Related): Nausea” value was 1 (1.1) n (%) and the “SAEs (Related): Overall” value was 15 (16.9) n (%). The “SAEs (Related): Pneumonia” value was 1 (1.1) n (%), the “Treatment-related AE leading to discontinuation: Acute kidney injury” value was 2 (2.2) n (%) and the “Treatment-related AE leading to discontinuation: Dermatitis bullous” value was 1 (1.1) n (%). For the same substance, the “Treatment-related AE leading to discontinuation: Lipase increased” value was 2 (2.2) n (%), the “Treatment-related AE leading to discontinuation: Metabolic acidosis” value was 1 (1.1) n (%) and the “Treatment-related AE leading to discontinuation: Multiple organ dysfunction syndrome” value was 1 (1.1) n (%). For the same substance, the “Treatment-related AE leading to discontinuation: Muscular weakness” value was 1 (1.1) n (%), the “Treatment-related AE leading to discontinuation: Overall” value was 14 (15.7) n (%) and the “Treatment-related AE leading to discontinuation: Peripheral motor neuropathy” value was 1 (1.1) n (%). The “Treatment-related AE leading to discontinuation: Peripheral sensory neuropathy” value was 4 (4.5) n (%), the “Treatment-related AE leading to discontinuation: Pneumonitis” value was 1 (1.1) n (%) and the “Treatment-related TEAEs” value was 86 (96.6) n (%). For the same substance, the “Treatment-related TEAEs (all grades): Alopecia” value was 45 (50.6) n (%), the “Treatment-related TEAEs (all grades): Anaemia” value was 22 (24.7) n (%) and the “Treatment-related TEAEs (all grades): Aspartate aminotransferase increased” value was 7 (7.9) n (%). The “Treatment-related TEAEs (all grades): Decreased appetite” value was 29 (32.6) n (%), the “Treatment-related TEAEs (all grades): Diarrhoea” value was 20 (22.5) n (%) and the “Treatment-related TEAEs (all grades): Dry eye” value was 11 (12.4) n (%). The “Treatment-related TEAEs (all grades): Dry skin” value was 16 (18.0) n (%), the “Treatment-related TEAEs (all grades): Dysgeusia” value was 24 (27.0) n (%) and the “Treatment-related TEAEs (all grades): Fatigue” value was 30 (33.7) n (%). The “Treatment-related TEAEs (all grades): Lacrimation increased” value was 9 (10.1) n (%), the “Treatment-related TEAEs (all grades): Nausea” value was 20 (22.5) n (%) and the “Treatment-related TEAEs (all grades): Neutropenia” value was 11 (12.4) n (%). For the same substance, the “Treatment-related TEAEs (all grades): Oedema peripheral” value was 10 (11.2) n (%), the “Treatment-related TEAEs (all grades): Overall” value was 86 (96.6) n (%) and the “Treatment-related TEAEs (all grades): Peripheral sensory neuropathy” value was 42 (47.2) n (%). The “Treatment-related TEAEs (all grades): Pruritus” value was 27 (30.3) n (%), the “Treatment-related TEAEs (all grades): Rash maculo-papular” value was 27 (30.3) n (%) and the “Treatment-related TEAEs (all grades): Vomiting” value was 7 (7.9) n (%). The “Treatment-related TEAEs (all grades): Weight decreased” value was 23 (25.8) n (%), the “Treatment-related TEAEs leading to death” value was 3 (3.4) n (%) and the “Treatment-related TEAEs leading to treatment discontinuation” value was 14 (15.7) n (%). The “Treatment-related TEAEs ≥Grade 3: Acute kidney injury” value was 4 (4.5) n (%), the “Treatment-related TEAEs ≥Grade 3: Amylase increased” value was 3 (3.4) n (%) and the “Treatment-related TEAEs ≥Grade 3: Anaemia” value was 5 (5.6) n (%). The “Treatment-related TEAEs ≥Grade 3: Aspartate aminotransferase increased” value was 2 (2.2) n (%), the “Treatment-related TEAEs ≥Grade 3: Decreased appetite” value was 5 (5.6) n (%) and the “Treatment-related TEAEs ≥Grade 3: Diarrhoea” value was 5 (5.6) n (%). For the same substance, the “Treatment-related TEAEs ≥Grade 3: Fatigue” value was 6 (6.7) n (%), the “Treatment-related TEAEs ≥Grade 3: Febrile neutropenia” value was 1 (1.1) n (%) and the “Treatment-related TEAEs ≥Grade 3: Hyperglycaemia” value was 5 (5.6) n (%). For the same substance, the “Treatment-related TEAEs ≥Grade 3: Hyponatraemia” value was 3 (3.4) n (%), the “Treatment-related TEAEs ≥Grade 3: Lipase increased” value was 5 (5.6) n (%) and the “Treatment-related TEAEs ≥Grade 3: Neutropenia” value was 8 (9.0) n (%). For the same substance, the “Treatment-related TEAEs ≥Grade 3: Neutrophil count decreased” value was 3 (3.4) n (%), the “Treatment-related TEAEs ≥Grade 3: Overall” value was 49 (55.1) n (%) and the “Treatment-related TEAEs ≥Grade 3: Peripheral sensory neuropathy” value was 3 (3.4) n (%). The “Treatment-related TEAEs ≥Grade 3: Pruritus” value was 3 (3.4) n (%), the “Treatment-related TEAEs ≥Grade 3: Rash erythematous” value was 2 (2.2) n (%) and the “Treatment-related TEAEs ≥Grade 3: Rash maculo-papular” value was 7 (7.9) n (%). The “Treatment-related grade 3-5 TEAEs” value was 49 (55.1) n (%), the “Treatment-related serious TEAEs” value was 15 (16.9) n (%) and the “TRAEs, Any Grade: Alopecia” value (additional 3 months follow-up) was 45 (51) n (%). The “TRAEs, Any Grade: Anemia” value (additional 3 months follow-up) was 22 (25) n (%), the “TRAEs, Any Grade: Decreased appetite” value (additional 3 months follow-up) was 29 (33) n (%) and the “TRAEs, Any Grade: Diarrhea” value (additional 3 months follow-up) was 20 (22) n (%). The “TRAEs, Any Grade: Dysgeusia” value (additional 3 months follow-up) was 25 (28) n (%), the “TRAEs, Any Grade: Fatigue” value (additional 3 months follow-up) was 30 (34) n (%) and the “TRAEs, Any Grade: Hyperglycemia” value (additional 3 months follow-up) was 8 (9) n (%). The “TRAEs, Any Grade: Lipase increased” value (additional 3 months follow-up) was 7 (8) n (%) and the “TRAEs, Any Grade: Nausea” value (additional 3 months follow-up) was 20 (22) n (%).
